Measurements from PMC8752837, “Structural basis of BAK activation in mitochondrial apoptosis initiation” (Nature Communications, 2022).

Key:
[1] = molecular target: T1, MEAS-BAK-His6 (C-terminus truncated recombinant human BAK containing C-terminal 6x histidine tag) (human) (UniProt Q16611)
T1 sequence: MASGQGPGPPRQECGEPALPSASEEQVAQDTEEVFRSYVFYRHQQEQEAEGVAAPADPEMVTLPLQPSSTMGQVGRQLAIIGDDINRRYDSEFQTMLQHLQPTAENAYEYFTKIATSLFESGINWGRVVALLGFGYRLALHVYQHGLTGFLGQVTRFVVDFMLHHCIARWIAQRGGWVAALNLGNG

[2] = molecular target: T2, Human BAK-∆TM-His6 (human); assay: SPR; MEAS-BAK-His6 captured (~500 RU) on Ni2+-charged NTA HisCap chip, peptides injected; 20 °C; 20 mM HEPES pH 8.0, 200 mM NaCl, 1 mM TCEP, 0.01% Tween20; 1:1 interaction model
T2 sequence (Q16611 whole entry, looked up): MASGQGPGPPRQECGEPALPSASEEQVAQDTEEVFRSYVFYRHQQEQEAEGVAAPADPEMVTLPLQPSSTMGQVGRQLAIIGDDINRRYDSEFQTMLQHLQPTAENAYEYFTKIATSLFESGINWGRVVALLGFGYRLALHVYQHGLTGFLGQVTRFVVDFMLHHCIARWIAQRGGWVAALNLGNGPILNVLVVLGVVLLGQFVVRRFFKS

B1: WT BAK BH3 peptide (peptide)
peptide: SASEEQVAQDTEEVFRSYVFYRHQQEQEAEGVAAPADPEMVTLPLQPSSTMGQVGRQLAIIGDDINRRYDSEFQTMLQHLQPTAENAYEYFTKIATSLFESGINWGRVVALLGFGYRLALHVYQHGLTGFLGQVTRFVVDFMLHHCIARWIAQRGGWVAALNL
modifications: N-terminal acetylation; C-terminal amidation
B1 was tested, and the Supplementary Table 1: liposome permeabilization EC50 (peptide dose against AUC, 50 nM BAK; data of Supplementary Figure 4b; also printed in Supplementary Figure 3d) [1] was 0.0358 µM.

B2: BAK BH3 peptide (peptide)
peptide: B1 peptide
modifications: N-terminal acetylation; C-terminal amidation
Work on B2 yielded a Kd [2] of 67 µM.
